{"source": "paper PMC3059534", "key": {"Sae2 [1]": {"molecular_target": "T1, Sae2 (Saccharomyces cerevisiae (budding yeast), UniProt P46946 1-345)", "T1 sequence": "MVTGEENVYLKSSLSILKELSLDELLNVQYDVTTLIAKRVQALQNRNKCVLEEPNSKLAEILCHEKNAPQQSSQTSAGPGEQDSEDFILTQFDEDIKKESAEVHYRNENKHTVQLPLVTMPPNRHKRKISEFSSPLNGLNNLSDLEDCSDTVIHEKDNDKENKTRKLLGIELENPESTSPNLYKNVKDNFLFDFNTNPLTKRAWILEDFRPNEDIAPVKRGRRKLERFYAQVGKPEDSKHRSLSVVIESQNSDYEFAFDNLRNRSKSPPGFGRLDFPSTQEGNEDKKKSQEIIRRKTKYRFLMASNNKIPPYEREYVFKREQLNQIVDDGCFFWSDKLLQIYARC", "assay": "EMSA"}, "M(H125N)RX": {"molecular_target": "M(H125N)RX (Saccharomyces cerevisiae (budding yeast), UniProt P32829;P12753;P33301 1-692;1-1312;1-854, H125N;Mre11)", "sequence (P32829 whole entry H125N, chain 1 of 3)": "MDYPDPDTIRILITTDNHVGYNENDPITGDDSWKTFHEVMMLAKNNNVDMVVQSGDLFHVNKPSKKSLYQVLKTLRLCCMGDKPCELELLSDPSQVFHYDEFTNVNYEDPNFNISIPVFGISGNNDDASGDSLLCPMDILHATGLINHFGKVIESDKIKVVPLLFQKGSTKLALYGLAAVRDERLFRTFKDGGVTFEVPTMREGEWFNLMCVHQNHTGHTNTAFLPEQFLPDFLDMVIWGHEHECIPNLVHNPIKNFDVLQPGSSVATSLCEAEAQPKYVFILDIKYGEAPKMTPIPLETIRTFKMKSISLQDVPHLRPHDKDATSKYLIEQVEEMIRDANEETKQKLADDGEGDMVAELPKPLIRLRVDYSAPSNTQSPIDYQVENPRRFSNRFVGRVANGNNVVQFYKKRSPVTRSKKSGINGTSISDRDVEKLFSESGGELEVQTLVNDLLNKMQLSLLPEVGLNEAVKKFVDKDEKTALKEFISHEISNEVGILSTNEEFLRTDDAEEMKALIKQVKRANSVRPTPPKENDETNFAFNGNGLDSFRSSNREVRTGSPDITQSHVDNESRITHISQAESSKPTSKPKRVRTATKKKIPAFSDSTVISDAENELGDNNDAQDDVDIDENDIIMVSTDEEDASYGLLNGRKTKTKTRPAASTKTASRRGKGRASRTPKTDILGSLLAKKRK", "sequence (P12753 whole entry, stated change not applied, chain 2 of 3)": "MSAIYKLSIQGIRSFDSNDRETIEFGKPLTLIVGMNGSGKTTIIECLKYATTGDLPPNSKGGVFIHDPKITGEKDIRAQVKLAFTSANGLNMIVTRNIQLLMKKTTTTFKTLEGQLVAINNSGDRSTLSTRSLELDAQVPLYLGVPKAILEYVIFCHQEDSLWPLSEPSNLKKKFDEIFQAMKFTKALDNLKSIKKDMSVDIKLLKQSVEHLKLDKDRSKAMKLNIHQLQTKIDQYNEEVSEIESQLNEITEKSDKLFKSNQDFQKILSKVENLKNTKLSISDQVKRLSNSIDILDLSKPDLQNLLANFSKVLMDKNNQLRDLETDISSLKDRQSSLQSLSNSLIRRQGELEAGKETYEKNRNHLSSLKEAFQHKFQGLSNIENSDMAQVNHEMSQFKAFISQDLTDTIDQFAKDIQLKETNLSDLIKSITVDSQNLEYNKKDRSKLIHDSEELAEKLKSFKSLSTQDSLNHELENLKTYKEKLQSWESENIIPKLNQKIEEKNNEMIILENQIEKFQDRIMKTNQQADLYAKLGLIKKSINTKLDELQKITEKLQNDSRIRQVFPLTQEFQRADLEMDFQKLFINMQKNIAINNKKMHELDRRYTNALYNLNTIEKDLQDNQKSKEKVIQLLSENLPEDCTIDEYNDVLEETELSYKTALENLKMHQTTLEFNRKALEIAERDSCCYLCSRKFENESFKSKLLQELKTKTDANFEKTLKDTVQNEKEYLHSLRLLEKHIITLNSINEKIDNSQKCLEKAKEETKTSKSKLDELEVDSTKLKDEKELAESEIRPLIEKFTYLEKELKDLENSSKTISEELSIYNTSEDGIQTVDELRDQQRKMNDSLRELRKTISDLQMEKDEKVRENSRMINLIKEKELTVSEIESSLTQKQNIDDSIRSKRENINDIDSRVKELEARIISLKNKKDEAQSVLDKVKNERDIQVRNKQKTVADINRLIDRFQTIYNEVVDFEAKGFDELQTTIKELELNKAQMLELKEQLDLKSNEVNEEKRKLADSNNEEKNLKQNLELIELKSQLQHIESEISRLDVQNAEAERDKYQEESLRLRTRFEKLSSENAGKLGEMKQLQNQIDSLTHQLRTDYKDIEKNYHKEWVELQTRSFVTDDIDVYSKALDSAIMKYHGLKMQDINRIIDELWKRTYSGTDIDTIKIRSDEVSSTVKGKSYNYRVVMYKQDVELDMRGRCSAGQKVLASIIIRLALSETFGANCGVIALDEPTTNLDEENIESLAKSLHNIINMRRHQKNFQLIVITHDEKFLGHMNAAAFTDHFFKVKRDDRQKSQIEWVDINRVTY", "sequence (P33301 whole entry, stated change not applied, chain 3 of 3)": "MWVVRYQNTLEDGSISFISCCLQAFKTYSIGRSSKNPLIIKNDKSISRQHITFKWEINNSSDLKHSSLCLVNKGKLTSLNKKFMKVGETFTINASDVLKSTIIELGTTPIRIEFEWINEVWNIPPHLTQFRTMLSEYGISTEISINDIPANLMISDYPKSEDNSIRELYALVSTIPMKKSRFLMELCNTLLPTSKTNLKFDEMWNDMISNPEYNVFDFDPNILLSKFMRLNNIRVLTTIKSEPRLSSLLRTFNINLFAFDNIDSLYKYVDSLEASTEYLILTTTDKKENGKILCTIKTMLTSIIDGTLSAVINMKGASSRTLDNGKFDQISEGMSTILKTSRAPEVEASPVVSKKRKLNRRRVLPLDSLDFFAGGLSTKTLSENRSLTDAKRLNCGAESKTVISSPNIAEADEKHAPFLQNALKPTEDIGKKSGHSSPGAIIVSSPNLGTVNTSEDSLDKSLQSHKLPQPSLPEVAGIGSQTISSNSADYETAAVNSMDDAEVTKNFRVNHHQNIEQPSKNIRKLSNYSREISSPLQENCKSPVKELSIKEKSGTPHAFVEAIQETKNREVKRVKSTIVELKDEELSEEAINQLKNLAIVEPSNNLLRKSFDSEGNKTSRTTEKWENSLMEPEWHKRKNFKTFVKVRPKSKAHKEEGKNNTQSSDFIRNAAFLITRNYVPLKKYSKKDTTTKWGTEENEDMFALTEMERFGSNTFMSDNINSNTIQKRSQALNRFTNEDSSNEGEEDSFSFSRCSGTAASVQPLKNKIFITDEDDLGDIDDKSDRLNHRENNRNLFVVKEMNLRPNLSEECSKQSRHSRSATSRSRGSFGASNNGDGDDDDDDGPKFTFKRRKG", "assay": "EMSA"}, "[2]": {"molecular_target": "Mre11-Rad50-Xrs2 (MRX);Sae2 (Saccharomyces cerevisiae (budding …, UniProt P32829;P12753;P33301;P46946 1-692;1-1312;1-854;1-345, |))", "sequence (P32829 whole entry, chain 1 of 3)": "as the sequence (P32829 whole entry H125N, chain 1 of 3) above, with N125H counted along it", "sequence (P12753 whole entry, chain 2 of 3)": "as the sequence (P12753 whole entry, stated change not applied, chain 2 of 3) above", "sequence (P33301 whole entry, chain 3 of 3)": "as the sequence (P33301 whole entry, stated change not applied, chain 3 of 3) above", "assay": "EMSA"}, "Exo1 D173A": {"molecular_target": "T2, Exo1 D173A (Saccharomyces cerevisiae (budding yeast), UniProt P39875 1-702, D173A)", "T2 sequence": "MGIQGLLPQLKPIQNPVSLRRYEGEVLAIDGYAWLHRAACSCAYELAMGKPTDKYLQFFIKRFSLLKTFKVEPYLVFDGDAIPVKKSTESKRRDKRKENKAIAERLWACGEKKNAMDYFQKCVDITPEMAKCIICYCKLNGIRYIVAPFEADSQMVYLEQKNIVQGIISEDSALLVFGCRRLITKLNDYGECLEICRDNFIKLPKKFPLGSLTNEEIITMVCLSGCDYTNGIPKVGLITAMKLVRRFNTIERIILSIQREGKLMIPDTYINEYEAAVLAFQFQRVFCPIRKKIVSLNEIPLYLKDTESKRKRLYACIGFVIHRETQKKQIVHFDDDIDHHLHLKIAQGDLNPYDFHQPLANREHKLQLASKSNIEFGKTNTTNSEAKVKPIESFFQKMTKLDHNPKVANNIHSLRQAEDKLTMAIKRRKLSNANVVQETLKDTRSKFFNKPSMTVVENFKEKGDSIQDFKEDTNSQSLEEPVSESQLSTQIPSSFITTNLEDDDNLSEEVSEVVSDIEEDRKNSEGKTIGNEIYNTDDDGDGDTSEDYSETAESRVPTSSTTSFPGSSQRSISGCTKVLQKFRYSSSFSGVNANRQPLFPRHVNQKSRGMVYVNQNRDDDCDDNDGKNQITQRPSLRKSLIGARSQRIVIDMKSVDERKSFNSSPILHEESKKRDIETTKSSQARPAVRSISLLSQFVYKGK", "assay": "EMSA"}, "[3]": {"molecular_target": "Exo1 (form in crosslinking assay not stated);Mre11-Rad50-Xrs2 (MRX);Sae2 (Saccharomyces cerevisiae (budding …, UniProt P39875;P32829;P12753;P33301;P46946 1-702;1-692;1-1312;1-854;1-345, ||))", "sequence (P32829 whole entry, chain 2 of 3)": "as the sequence (P32829 whole entry H125N, chain 1 of 3) above, with N125H counted along it", "sequence (P12753 whole entry, chain 3 of 3)": "as the sequence (P12753 whole entry, stated change not applied, chain 2 of 3) above", "sequence (P33301 whole entry, chain 4 of 3)": "as the sequence (P33301 whole entry, stated change not applied, chain 3 of 3) above", "assay": "UV photo-crosslinking"}, "[4]": {"molecular_target": "T3, Exo1 (form in crosslinking assay not stated) (Saccharomyces cerevisiae (budding yeast), UniProt P39875 1-702)", "T3 sequence": "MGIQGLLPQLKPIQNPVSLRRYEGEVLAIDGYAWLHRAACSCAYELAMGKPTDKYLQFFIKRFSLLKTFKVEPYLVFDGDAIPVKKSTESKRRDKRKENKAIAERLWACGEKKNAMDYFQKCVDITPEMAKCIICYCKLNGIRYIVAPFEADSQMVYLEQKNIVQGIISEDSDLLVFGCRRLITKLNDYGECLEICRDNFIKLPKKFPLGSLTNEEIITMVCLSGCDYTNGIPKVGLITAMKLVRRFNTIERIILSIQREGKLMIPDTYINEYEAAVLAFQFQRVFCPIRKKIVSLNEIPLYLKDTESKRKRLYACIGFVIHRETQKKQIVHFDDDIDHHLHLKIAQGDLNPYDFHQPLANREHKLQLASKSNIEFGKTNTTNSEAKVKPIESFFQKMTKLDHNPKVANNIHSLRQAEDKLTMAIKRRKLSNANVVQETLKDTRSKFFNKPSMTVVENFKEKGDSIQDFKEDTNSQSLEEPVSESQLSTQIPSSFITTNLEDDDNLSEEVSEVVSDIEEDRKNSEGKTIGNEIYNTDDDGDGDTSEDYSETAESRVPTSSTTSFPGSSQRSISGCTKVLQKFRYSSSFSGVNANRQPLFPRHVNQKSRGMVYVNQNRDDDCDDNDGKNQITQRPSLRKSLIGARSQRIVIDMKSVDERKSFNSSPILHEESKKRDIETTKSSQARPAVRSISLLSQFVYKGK", "assay": "UV photo-crosslinking"}, "Sae2 [5]": {"molecular_target": "T1, Sae2", "assay": "UV photo-crosslinking"}, "[6]": {"molecular_target": "Exo1 D173A;Mre11-Rad50-Xrs2 (MRX) (Saccharomyces cerevisiae (budding …, UniProt P39875;P32829;P12753;P33301 1-702;1-692;1-1312;1-854, D173A|))", "sequence (P32829 whole entry, chain 2 of 3)": "as the sequence (P32829 whole entry H125N, chain 1 of 3) above, with N125H counted along it", "sequence (P12753 whole entry, chain 3 of 3)": "as the sequence (P12753 whole entry, stated change not applied, chain 2 of 3) above", "sequence (P33301 whole entry, chain 4 of 3)": "as the sequence (P33301 whole entry, stated change not applied, chain 3 of 3) above", "assay": "pull-down"}}, "data": [{"binder": "TP74/TP2680 42 bp duplex with 4 nt 3' overhangs (dsDNA) DNA 1: CTGCAGGGTTTTTGTTCCAGTCTGTAGCACTGTGTAAGACAGGCCA DNA 2: CTGTCTTACACAGTGCTACAGACTGGAACAAAAACCCTGCAGTACA", "values": [{"measurement": "binding result", "setting": "Sae2 [1]", "value": "binds"}, {"measurement": "binding result", "setting": "M(H125N)RX", "value": "binds"}, {"measurement": "binding result", "setting": "[2]", "value": "binds"}]}, {"binder": "TP74/TP2681 branched substrate (dsDNA) DNA 1: CTGCAGGGTTTTTGTTCCAGTCTGTAGCACTGTGTAAGACAGGCCA DNA 2: CTAGCTACTTGACACAGTGCTACAGACTGGAACTGACTTCATGCTA", "values": [{"measurement": "binding result", "setting": "Exo1 D173A", "value": "binds"}]}, {"binder": "TP2722/TP2723 90 bp, 5' azide (dsDNA, 5 phosphorothioates at 5' end of each strand, azidophenacyl (APB) modified) DNA 1: AAGTAAATCATTAATCTAACAATGCGCTCATCGTCATCCTCACATCGGCCTGTCTTACACAGTGCTAAGCTCGGAACAAAAACCCTGCAG DNA 2: CTGCAGGGTTTTTGTTCCGAGCTTAGCACTGTGTAAGACAGGCCGATGTGAGGATGACGATGAGCGCATTGTTAGATTAATGATTTACTT", "values": [{"measurement": "binding result", "setting": "[3]", "value": "binds"}, {"measurement": "binding result", "setting": "[4]", "value": "binds"}]}, {"binder": "TP771/TP828 90 bp, 3' azide (dsDNA, 5 phosphorothioates at 3' end of each strand, azidophenacyl (APB) modified) DNA 1: AAGTAAATCATTAATCTAACAATGCGCTCATCGTCATCCTCACATCGGCCTGTCTTACACAGTGCTAAGCTCGGAACAAAAACCCTGCAG DNA 2: CTGCAGGGTTTTTGTTCCGAGCTTAGCACTGTGTAAGACAGGCCGATGTGAGGATGACGATGAGCGCATTGTTAGATTAATGATTTACTT", "values": [{"measurement": "binding result", "setting": "Sae2 [5]", "value": "binds"}]}, {"binder": "TP2399/TP2400 blunt 100 bp duplex, pull-down (dsDNA) DNA 1: GCTAAAGCGAAGAACACTGAAAGGTTCAAAACCTCCACTATAGTCCACTCGCAGTCGTACAAGAGGCTTCTCTGGCTGGTGAGAATTACCCAGACGTTCC DNA 2: GGAACGTCTGGGTAATTCTCACCAGCCAGAGAAGCCTCTTGTACGACTGCGAGTGGACTATAGTGGAGGTTTTGAACCTTTCAGTGTTCTTCGCTTTAGC", "values": [{"measurement": "binding result", "setting": "[6]", "value": "binds"}]}]}
